# Measured values: article doi:10.1101/2025.10.17.683123
# Biological target: HCMV Pr S225M (human cytomegalovirus) (UniProt P16753)
# Experiment: SEC-MALS; HCMV Pr alone on SEC, eluate into Wyatt Dawn Pro and Optilab; concentration not given
substance,measurement,value
HCMV Pr S225M (from UniProt P16753) (enzyme),stoichiometry N,2
